Assay results: patent US20130004432A1 (INSTITUT NATIONAL DE LA SANTE ET DE LA RECHERCHE MEDICALE, published 2013)

Target: T1, human B7H6 (human, UniProt Q68D85 25-454)
T1 construct: in the immunoblot and immunoprecipitation experiments it stood in cell lysates; residues 1-24 are not expressly called a signal peptide; also called P815.B7H6; P815.B7-H6
T1 sequence: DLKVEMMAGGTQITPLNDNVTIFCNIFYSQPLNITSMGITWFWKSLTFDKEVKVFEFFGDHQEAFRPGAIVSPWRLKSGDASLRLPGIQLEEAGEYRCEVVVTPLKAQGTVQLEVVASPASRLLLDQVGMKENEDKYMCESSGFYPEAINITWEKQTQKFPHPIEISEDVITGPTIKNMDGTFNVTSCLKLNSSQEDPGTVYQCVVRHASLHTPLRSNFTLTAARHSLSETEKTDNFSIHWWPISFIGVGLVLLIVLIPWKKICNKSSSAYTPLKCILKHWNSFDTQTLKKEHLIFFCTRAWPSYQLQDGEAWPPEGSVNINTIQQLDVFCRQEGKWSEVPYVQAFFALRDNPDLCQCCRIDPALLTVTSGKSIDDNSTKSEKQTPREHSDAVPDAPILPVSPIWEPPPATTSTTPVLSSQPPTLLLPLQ
Test: FACS on P815.B7-H6 cells

B1: NKp30Fc, soluble form of human NKp30 consisting of the extracellular domain of human NKp30 with a C-terminal Fc fusion (Fc fusion, UniProt O14931 19-135, looked up)
chain: LWVSQPPEIRTLEGSSAFLPCSFNASQGRLAIGSVTWFRDEVVPGKEVRNGTPEFRGRLAPLASSRFLHDHQAELHIRDVRGHDASIYVCRVEVLGLGVGTGNGTRLVVEKEHPQLG
notes: extracellular domain; not shown: C-terminal Fc
  binding result: binds
